Measured values published in patent US20120263701.

T1: soluble tissue factor, P13726
T1 chain: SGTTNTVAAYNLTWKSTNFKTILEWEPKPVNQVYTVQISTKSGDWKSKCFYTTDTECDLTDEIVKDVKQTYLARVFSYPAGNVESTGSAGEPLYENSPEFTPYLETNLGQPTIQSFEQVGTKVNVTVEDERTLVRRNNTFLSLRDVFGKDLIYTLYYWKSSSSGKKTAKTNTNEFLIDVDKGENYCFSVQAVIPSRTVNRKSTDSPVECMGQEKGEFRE


Tests used:
[1] = target: T1, soluble tissue factor, P13726

Molecule	Concentration by Activity (ng/ml), aPTT based factor assay (FIX/cFXI2/XTEN (pCW0736)) [ng/mL]	Fraction Active (activity / ELISA) (FIX/cFXI2/XTEN (pCW0736)) [%]	clotting activity against FIX-XTEN without cleavage site (aPTT based factor assay) (FIX/cFXI2/XTEN (pCW0736))	Concentration by Activity (ng/ml), aPTT based factor assay (FIX/cFXI3/XTEN (pCW0737)) [ng/mL]	Fraction Active (activity / ELISA) (FIX/cFXI3/XTEN (pCW0737)) [%]	clotting activity against FIX-XTEN without cleavage site (aPTT based factor assay) (FIX/cFXI3/XTEN (pCW0737))	Concentration by Activity (ng/ml), aPTT based factor assay (FIX/cFXI1/XTEN (pCW0735)) [ng/mL]	Fraction Active (activity / ELISA) (FIX/cFXI1/XTEN (pCW0735)) [%]	clotting activity against FIX-XTEN without cleavage site (aPTT based factor assay) (FIX/cFXI1/XTEN (pCW0735))	soluble tissue factor (sTF) induced clotting (Stago STA-Clot FVIIa activity assay) [1]
FXI protease	9	34	enhanced the clotting activity by greater than 30-fold	11	40	enhanced the clotting activity by greater than 30-fold	7	30	enhanced the clotting activity by greater than 30-fold	
FVIIa-AE288 (protein) chain 1: ANAFLEELRPGSLERECKEEQCSFEEAREIFKDAERTKLFWISYSDGDQCASSPCQNGGSCKDQLQSYICFCLPAFEGRNCETHKDDQLICVNENGGCEQYCSDHTGTKRSCRCHEGYSLLADGVSCTPTVEYPCGKIPILEKRNASKPQGR chain 2: IVGGKVCPKGECPWQVLLLVNGAQLCGGTLINTIWVVSAAHCFDKIKNWRNLIAVLGEHDLSEHDGDEQSRRVAQVIIPSTYVPGTTNHDIALLRLHQPVVLTDHVVPLCLPERTFSERTLAFVRFSLVSGWGQLLDRGATALELMVLNVPRLMTQDCLQQSRKVGDSPNITEYMFCAGYSDGSKDSCKGDSGGPHATHYRGTWYLTGIVSWGQGCATVGHFGVYTRVSQYIEWLQKLMRSEPRPGVLLRAPFPGSPGTSESATPESGPGSEPATSGSETPGTSESATPESGPGSEPATSGSETPGTSESATPESGPGTSTEPSEGSAPGSPAGSPTSTEEGTSESATPESGPGSEPATSGSETPGTSESATPESGPGSPAGSPTSTEEGSPAGSPTSTEEGTSTEPSEGSAPGTSESATPESGPGTSESATPESGPGTSESATPESGPGSEPATSGSETPGSEPATSGSETPGSPAGSPTSTEEGTSTEPSEGSAPGTSTEPSEGSAPGSEPATSGSETPGTSESATPESGPGTSTEPSEGSAPGSSS										an activity equivalent to 112 U/ml of FVIIa activity
